Tests used:
[1] = biological target: Human quinolinate phosphoribosyltransferase (hQPRTase) (human) (UniProt Q15274); experiment: crystal structure
[2] = biological target: Human quinolinate phosphoribosyltransferase (hQPRTase) (human) (UniProt Q15274); experiment: SEC

stoichiometry N [1]: 6 | stoichiometry N [2]: 6
Substance: Human quinolinate phosphoribosyltransferase (hQPRTase) (from UniProt Q15274 1-297) (enzyme)
